Measured values reported in the supplement of paper PMC9170038.

Test system: K4 kissing-loop RNA reporter
Assay: apparent KD of K4 kissing-loop reporter; higher = weaker reporter binding
Conditions: Eterna round: R107
Experimental: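 RNA-MaP round R107: designed RNA switches with theophylline, tryptophan, arginine or FMN aptamers are transcribed on-chip within common flanks. They are titrated with a labelled K4 kissing-loop RNA reporter in RNA-MaP buffer (100 mM Tris pH 7.5, 80 mM KCl, 4 mM MgCl2), without ligand or with the indicated ligand. Median apparent KD per design.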

[1] = input ligand: theophylline 20 uM
[2] = input ligand: tryptophan 2.4 mM
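Also: bound reporter read as fluorescence of individual clusters on recovered sequencing chips by microscopy, with normalized cluster intensities fitted with a binding model.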

AUUUUUUACAGAAGGAGCGUGUUUUAAUAAUCAUGGUGCUUAGCGAGUGAUGUUCGCUUUACACAGGUAGGUCGCUGUUUAUUUA [JR_Nu_ExcArginiB_Sub030]
apparent KD of K4 kissing-loop reporter (input ligand: FMN 200 uM): 120 nM | apparent KD of K4 kissing-loop reporter (input ligand: arginine 13.2 mM): 113 nM | apparent KD of K4 kissing-loop reporter (input ligand: none): 127 nM | apparent KD of K4 kissing-loop reporter [1]: 112 nM | apparent KD of K4 kissing-loop reporter [2]: 112 nM

AUUUUUUUAUCAGGAUAUUAGUGAUGGUUGUUUUUGUUAGUGAUGUUGAUAUUUGUUUUAUGUAUUUAAGAAGGGAUUGAGAUGU [zbbzmullin]
apparent KD of K4 kissing-loop reporter (input ligand: FMN 200 uM): 68.1 nM | apparent KD of K4 kissing-loop reporter (input ligand: arginine 13.2 mM): 24.7 nM | apparent KD of K4 kissing-loop reporter (input ligand: none): 42.9 nM | apparent KD of K4 kissing-loop reporter [1]: 31.7 nM | apparent KD of K4 kissing-loop reporter [2]: 49.7 nM

AUUUUUUUAUCAGGAUAUUAGUGUUGGUUUGUUUUGUUAGUGAUGUUGAUAUUUGUUUUAUGUAUUUAAGAAGGGAUUGAGAUGU [huupullin]
apparent KD of K4 kissing-loop reporter (input ligand: FMN 200 uM): 283 nM | apparent KD of K4 kissing-loop reporter (input ligand: arginine 13.2 mM): 254 nM | apparent KD of K4 kissing-loop reporter (input ligand: none): 278 nM | apparent KD of K4 kissing-loop reporter [1]: 395 nM | apparent KD of K4 kissing-loop reporter [2]: 211 nM

CAACGAGUGAUGGUCGUUGACGGCCAUCCCGAGGAUAUGGGAUUUUCCAGAAGGCGGGAUCGCCCGGAGUGAUGUUCCGUGAUUU [Same State FMN A GF 15]
apparent KD of K4 kissing-loop reporter (input ligand: FMN 200 uM): 73.3 nM | apparent KD of K4 kissing-loop reporter (input ligand: arginine 13.2 mM): 228 nM | apparent KD of K4 kissing-loop reporter (input ligand: none): 150 nM | apparent KD of K4 kissing-loop reporter [1]: 221 nM | apparent KD of K4 kissing-loop reporter [2]: 116 nM

CAAGCUCUCCAAGGAUAUGAUAUCGACCCGUCUUAGUGAUGUUAAGGCUGUAGAAAUUCACAUUGAUCAGAAGGUGGUACCCUCC [theeternabot_sameState_KL_FMN_B_8]
apparent KD of K4 kissing-loop reporter (input ligand: FMN 200 uM): 317 nM | apparent KD of K4 kissing-loop reporter (input ligand: arginine 13.2 mM): 194 nM | apparent KD of K4 kissing-loop reporter (input ligand: none): 256 nM | apparent KD of K4 kissing-loop reporter [1]: 351 nM | apparent KD of K4 kissing-loop reporter [2]: 239 nM

CACCAUGAAUUCUCUAGGAGUGAUGUUUUUCGAGGACCGGUACGGCCGCCACUCGGACGAGGACCCUGGGAGCGGCGAAGCGGCU [nigmullin]
apparent KD of K4 kissing-loop reporter (input ligand: FMN 200 uM): 235 nM | apparent KD of K4 kissing-loop reporter (input ligand: arginine 13.2 mM): 104 nM | apparent KD of K4 kissing-loop reporter (input ligand: none): 238 nM | apparent KD of K4 kissing-loop reporter [1]: 246 nM | apparent KD of K4 kissing-loop reporter [2]: 150 nM

CACGAUGAAUUCUCUAGGAGUGAUGUUUUUCGAGGACCGGUACGGCCGCCACUCGGACGACGAGCGUGGUAGCGGCCUGAAGACU [,omullin]
apparent KD of K4 kissing-loop reporter (input ligand: FMN 200 uM): 743 nM | apparent KD of K4 kissing-loop reporter (input ligand: arginine 13.2 mM): 225 nM | apparent KD of K4 kissing-loop reporter (input ligand: none): 468 nM | apparent KD of K4 kissing-loop reporter [1]: 680 nM | apparent KD of K4 kissing-loop reporter [2]: 380 nM

CAGAUGUAGGCGGCCGCCACUCUCAUUACCGUACGCAAGUAUGAUUAGAAGUGAUGUUUCUCGGUGAGGACCGGGCCAUUCCCGA [theeternabot_sameState_KL_Trp_B_27]
apparent KD of K4 kissing-loop reporter (input ligand: FMN 200 uM): 690 nM | apparent KD of K4 kissing-loop reporter (input ligand: arginine 13.2 mM): 551 nM | apparent KD of K4 kissing-loop reporter (input ligand: none): 670 nM | apparent KD of K4 kissing-loop reporter [1]: 672 nM | apparent KD of K4 kissing-loop reporter [2]: 545 nM

CAUACGCAUGGAGGAUAUGAGAUUUCUCAUGUCAUUUAAUAUUCUCAGUGAUGUUGAGAUUUUGGCUCAGAAGGCCAUGUGUAUG [Ex FMN B 19]
apparent KD of K4 kissing-loop reporter (input ligand: FMN 200 uM): 176 nM | apparent KD of K4 kissing-loop reporter (input ligand: arginine 13.2 mM): 249 nM | apparent KD of K4 kissing-loop reporter (input ligand: none): 281 nM | apparent KD of K4 kissing-loop reporter [1]: 297 nM | apparent KD of K4 kissing-loop reporter [2]: 273 nM

CAUACGCAUGGAGGAUAUGAGAUUUUUCAUAUUAUUUUUUAUUCUCAGUGAUGUUGGGAUUUAUAAUCAGAAGGCCAUGUGUAUG [Ex FMN B 11]
apparent KD of K4 kissing-loop reporter (input ligand: FMN 200 uM): 88.4 nM | apparent KD of K4 kissing-loop reporter (input ligand: arginine 13.2 mM): 79.2 nM | apparent KD of K4 kissing-loop reporter (input ligand: none): 84.9 nM | apparent KD of K4 kissing-loop reporter [1]: 94.7 nM | apparent KD of K4 kissing-loop reporter [2]: 88.9 nM

CAUAGACAAGUGAUGUUUGUCAUAACCGAAGGAGCGUCUUUAAAGACAGGUAGGUCGCGGAUUAAUUAAGUUAUUAUUCUUUUUA [JR_SSArginiA_Sub018]
apparent KD of K4 kissing-loop reporter (input ligand: FMN 200 uM): 552 nM | apparent KD of K4 kissing-loop reporter (input ligand: arginine 13.2 mM): 494 nM | apparent KD of K4 kissing-loop reporter (input ligand: none): 644 nM | apparent KD of K4 kissing-loop reporter [1]: 573 nM | apparent KD of K4 kissing-loop reporter [2]: 439 nM

CAUUAAACUCAAACUAUUGGGUUUACGUUCCGAGGACCGGUACGGCCGCCACUCGGUCGAUGCUAUACCAUACGAGUGAUGUUCG [theeternabot_sameState_KL_Trp_A_1]
apparent KD of K4 kissing-loop reporter (input ligand: FMN 200 uM): 465 nM | apparent KD of K4 kissing-loop reporter (input ligand: arginine 13.2 mM): 452 nM | apparent KD of K4 kissing-loop reporter (input ligand: none): 502 nM | apparent KD of K4 kissing-loop reporter [1]: 404 nM | apparent KD of K4 kissing-loop reporter [2]: 352 nM

CAUUCACGGCGAGUCGAAGUGAUGUUUCGGCGAGGACCGGUACGGCCGCCACUCGGAUAAAUAUAGCUUAUCACAUACACUUUCG [theeternabot_exclusion_KL_Trp_A_27]
apparent KD of K4 kissing-loop reporter (input ligand: FMN 200 uM): 159 nM | apparent KD of K4 kissing-loop reporter (input ligand: arginine 13.2 mM): 128 nM | apparent KD of K4 kissing-loop reporter (input ligand: none): 140 nM | apparent KD of K4 kissing-loop reporter [1]: 186 nM | apparent KD of K4 kissing-loop reporter [2]: 132 nM

CCAAUCUGUUACGAUACCAGUCAAAGAUAUUUUAUCAAUGCCCUCACCGAGUGAUGUUCGGACCCUUGGCAGCGUCUGGGAUAGG [ddfcmullin]
apparent KD of K4 kissing-loop reporter (input ligand: FMN 200 uM): 165 nM | apparent KD of K4 kissing-loop reporter (input ligand: arginine 13.2 mM): 142 nM | apparent KD of K4 kissing-loop reporter (input ligand: none): 186 nM | apparent KD of K4 kissing-loop reporter [1]: 165 nM | apparent KD of K4 kissing-loop reporter [2]: 149 nM

CCAAUCUUUUACGAUACCAGUCUAAUAUAUUUAAUCAAAACCCUCGCCGAGUGAUGUUCGGACCCUUGGCAGCGUUUGCGAGAGG [xssgstkmullin]
apparent KD of K4 kissing-loop reporter (input ligand: FMN 200 uM): 656 nM | apparent KD of K4 kissing-loop reporter (input ligand: arginine 13.2 mM): 365 nM | apparent KD of K4 kissing-loop reporter (input ligand: none): 543 nM | apparent KD of K4 kissing-loop reporter [1]: 452 nM | apparent KD of K4 kissing-loop reporter [2]: 424 nM

CCAUUCAUUUACGAUACCAGUCUAAUAUAUUUAAUCAAAACCCUCGCCGAGUGAUGUUCGGACCCUUGGCAGCGUCUGCGAGAGG [oookmullin]
apparent KD of K4 kissing-loop reporter (input ligand: FMN 200 uM): 596 nM | apparent KD of K4 kissing-loop reporter (input ligand: arginine 13.2 mM): 464 nM | apparent KD of K4 kissing-loop reporter (input ligand: none): 598 nM | apparent KD of K4 kissing-loop reporter [1]: 535 nM | apparent KD of K4 kissing-loop reporter [2]: 452 nM

CCAUUCUGUUACGAUACCAGUCUAAUAUAUUUGAUCAAUACCCUCGCCGAGUGAUGUUCGGACCCUUGGCAGCGUCUGGGACAGG [bbybmullin]
apparent KD of K4 kissing-loop reporter (input ligand: FMN 200 uM): 453 nM | apparent KD of K4 kissing-loop reporter (input ligand: arginine 13.2 mM): 377 nM | apparent KD of K4 kissing-loop reporter (input ligand: none): 410 nM | apparent KD of K4 kissing-loop reporter [1]: 440 nM | apparent KD of K4 kissing-loop reporter [2]: 364 nM

CCCUAAAUAUGCAGUGAUGUUGCAACUGAUACCAGUAUCGAAAGAUACCCUUGGCAGCGGAAAACCGCUACGUAAUUUAAAAGGG [Ex Theophylline A K4 19]
apparent KD of K4 kissing-loop reporter (input ligand: FMN 200 uM): 243 nM | apparent KD of K4 kissing-loop reporter (input ligand: arginine 13.2 mM): 327 nM | apparent KD of K4 kissing-loop reporter (input ligand: none): 356 nM | apparent KD of K4 kissing-loop reporter [1]: 385 nM | apparent KD of K4 kissing-loop reporter [2]: 243 nM

CCGAAGAACCAGUGAUGUUGGUUGACUAGACAGGAUAUGAGCAACAUCAGAAGGGUCUGGCUUCGGGAGUGGGUUGCGCUGACCU [Onbizaes]
apparent KD of K4 kissing-loop reporter (input ligand: FMN 200 uM): 283 nM | apparent KD of K4 kissing-loop reporter (input ligand: arginine 13.2 mM): 259 nM | apparent KD of K4 kissing-loop reporter (input ligand: none): 616 nM | apparent KD of K4 kissing-loop reporter [1]: 296 nM | apparent KD of K4 kissing-loop reporter [2]: 576 nM

CCGCUACCCUCAGGAUAUUAAUAUGGAGUGAUGUUCUAUGUCCGAUGGCGGAAACGCCAUCGGGAAUAAGAAGGGAGGGUAGCGG
apparent KD of K4 kissing-loop reporter (input ligand: FMN 200 uM): 189 nM | apparent KD of K4 kissing-loop reporter (input ligand: arginine 13.2 mM): 261 nM | apparent KD of K4 kissing-loop reporter (input ligand: none): 482 nM | apparent KD of K4 kissing-loop reporter [1]: 313 nM | apparent KD of K4 kissing-loop reporter [2]: 329 nM

CCGGCCCAGCCGGAUACCAGUGCGCCGCAGGGAACGGCGGGCCCAGAGUGAUGUUCGGGACACCCUUGGCAGCCGCCUGGGUCCC [#2 Same State - Theophylline B Attempt #30 (HarryS)]
apparent KD of K4 kissing-loop reporter (input ligand: FMN 200 uM): 618 nM | apparent KD of K4 kissing-loop reporter (input ligand: arginine 13.2 mM): 364 nM | apparent KD of K4 kissing-loop reporter (input ligand: none): 669 nM | apparent KD of K4 kissing-loop reporter [1]: 355 nM | apparent KD of K4 kissing-loop reporter [2]: 435 nM
